This note sets out measurements from publication PMC6882821, “Production of recombinant soluble dimeric C-type lectin-like receptors of rat natural killer cells” (Scientific Reports, 2019).

For data set [1], the target named is Clr-11-FcHis fusion protein (Clr-11^WAG in pHLsec-FcHis, uncleaved) (rat (WAG strain) | human) (UniProt Q0H8B9). Put plainly: SEC; gel filtration on Superdex 200 HR 10/30, room temperature. (In general: In gel filtration, larger molecules generally elute earlier.)
Data set [2] shares this target. Put plainly: AUC; sedimentation velocity, 0.2 mg/ml, 48000 rpm, 20 °C, 10 mM HEPES pH 7.0, 150 mM NaCl, 10 mM NaN3, c(s) model.
Data set [3] has as its target Clr-11^WAG V65-M207, histidine-tagged, expressed from pHLsec (rat (WAG strain)) (UniProt Q0H8B9). Nature of the data set: SEC; gel filtration on Superdex 200 HR 10/30, room temperature.
For data set [4] the target is unchanged. Nature of the data set: AUC; sedimentation equilibrium, 0.1 mg/ml, 12-15-18-21-24000 rpm, 4 °C, non-interacting discrete species model.
The target is the same in data set [5]. Nature of the data set: AUC; sedimentation velocity, 0.2 mg/ml, 48000 rpm, 20 °C, 10 mM HEPES pH 7.0, 150 mM NaCl, 10 mM NaN3, c(s) model.
The target is the same in data set [6]. Put plainly: non-reducing SDS-PAGE with Western blot; small-scale expression test; 10 ul of culture supernatant 3 days after transfection, 15% SDS-PAGE under non-reducing conditions, detected by PentaHis mAb; shows covalent dimers.
Data set [7] addresses Clr-11^WAG cleaved from the pHLsec-FcHis fusion by HRV 3C protease (rat (WAG strain)) (UniProt Q0H8B9). Nature of the data set: SEC; gel filtration on Superdex 200 HR 10/30, room temperature.
Data set [8] has the same target. Put plainly: AUC; sedimentation velocity, 0.2 mg/ml, 48000 rpm, 20 °C, 10 mM HEPES pH 7.0, 150 mM NaCl, 10 mM NaN3, c(s) model.
In data set [9] the target is NKR-P1B^SD C-terminal FcHis fusion protein (pHLsec-FcHis, uncleaved) (rat (SD strain) | human) (UniProt A4KWA1). Put plainly: not stated; data not shown; purified C-terminal FcHis fusion proteins.
Data set [10] has as its target NKR-P1B^WAG C-terminal FcHis fusion protein (pHLsec-FcHis, uncleaved) (rat (WAG strain) | human) (UniProt Q5NKN4). The description is as above.
Data set [11] deals with pYD5 Fc-NKR-P1B^SD fusion protein (uncleaved) (human | rat (SD strain)) (UniProt A4KWA1). Put plainly: SEC; gel filtration on Superdex 200 HR 10/30, room temperature.
Data set [12] shares this target. Put plainly: AUC; sedimentation velocity, 0.2 mg/ml, 48000 rpm, 20 °C, 10 mM HEPES pH 7.0, 150 mM NaCl, 10 mM NaN3, c(s) model.
The target in data set [13] is pYD5 Fc-NKR-P1B^WAG fusion protein (uncleaved) (human | rat (WAG strain)) (UniProt Q5NKN4). Put plainly: SEC; gel filtration on Superdex 200 HR 10/30, room temperature.
The target is the same in data set [14]. Nature of the data set: AUC; sedimentation velocity, 0.2 mg/ml, 48000 rpm, 20 °C, 10 mM HEPES pH 7.0, 150 mM NaCl, 10 mM NaN3, c(s) model.
Data set [15] concerns the molecule itself. Put plainly: SEC + other: non-reducing SDS-PAGE; gel filtration on Superdex 200 HR 10/30 after TEV cleavage, and 4-20% SDS-PAGE under reducing and non-reducing conditions.
Data set [16] concerns the molecule itself. Put plainly: non-reducing SDS-PAGE with Western blot; small-scale expression test; 10 ul of culture supernatant 3 days after transfection, 15% SDS-PAGE under non-reducing conditions, detected by PentaHis mAb; shows covalent dimers. Background: A western blot detects proteins with antibodies after separation by electrophoresis.

As usually defined, the stoichiometry N is a count of units in the complex or per binding partner.

Take “Clr-11-FcHis fusion protein (Clr-11^WAG in pHLsec-FcHis, uncleaved) (from UniProt Q0H8B9 65-207) (Fc fusion)”: the stoichiometry N in data set [1] and in data set [2] was 2 throughout. For the molecule “Clr-11^WAG V65-M207, histidine-tagged, expressed from pHLsec (from UniProt Q0H8B9 65-207) (domain or fragment)”, the stoichiometry N in data set [3], in data set [4], in data set [5] and in data set [6] was 2 in each case. “Clr-11^WAG cleaved from the pHLsec-FcHis fusion by HRV 3C protease (from UniProt Q0H8B9 65-207) (domain or fragment)”: the stoichiometry N in [7] and in data set [8] was 2 in each case.

In data set [9], “NKR-P1B^SD C-terminal FcHis fusion protein (pHLsec-FcHis, uncleaved) (from UniProt A4KWA1 78-223) (Fc fusion)” registered a stoichiometry N of 2. The molecule “NKR-P1B^WAG C-terminal FcHis fusion protein (pHLsec-FcHis, uncleaved) (from UniProt Q5NKN4 78-223) (Fc fusion)” displayed a stoichiometry N in [10] of 2.

Take “pYD5 Fc-NKR-P1B^SD fusion protein (uncleaved) (from UniProt A4KWA1 78-223) (Fc fusion)”: the stoichiometry N in data set [11] and in data set [12] was 2 in each case. Consider “pYD5 Fc-NKR-P1B^WAG fusion protein (uncleaved) (from UniProt Q5NKN4 78-223) (Fc fusion)”, for which the stoichiometry N in [13] and in data set [14] was 2 each time.

B1: NKR-P1B^SD ectodomain cleaved from the pYD5 Fc fusion by TEV protease (domain or fragment, rat (SD strain), UniProt A4KWA1 78-223, looked up)
chain: VQENRTKTTDSPAKLKCPKDWHSHQDKCFHVSQTSITWKGSLADCGGKGATLLLVQDQEELRFLRNLTKRISSSFWIGLSYTLSDEKWKWINGSTLNSDALNITGDTEKDSCASVSQDKVLSESCDSDNIWICQKELKRESTCNDS
notes: rat NKR-P1B of the SD strain, ectodomain construct V78-S223; Obtained as a separable mixture of monomer and covalent dimer; also called pYD5_NKR-P1B^SD (monomeric and dimeric fractions); not shown: Fc (human IgG), N-terminal, cleaved
With B1, the “stoichiometry N” value in data set [15] came out at 2.

B2: NKR-P1B^WAG V78-S223, histidine-tagged, expressed from pHLsec (domain or fragment, rat (WAG strain))
chain: ETGVQENRTKTTDSPTKLKCPKDWHSHQDKCFHVSQAPNTWNKSLADCGGKGATLLLIQDQEELRFLRNLTKGKDRSFWIGLNYTLPDKNWKWINSSTLNSDVLSIFGDTKQNSCASISQDKVLSESCDSDNLWICQKELKCECMCNGS
notes: residues that the pHLsec vector adds to the N-terminus of the construct; rat NKR-P1B of the WAG strain, extracellular part with slightly shortened N-terminus, V78-S223; source: suspension-adapted HEK293T, transiently transfected, secreted, culture supernatant
In the case of B2, the “stoichiometry N” value in data set [16] came out at 2.

B3: NKR-P1B^WAG ectodomain cleaved from the pYD5 Fc fusion by TEV protease (domain or fragment, rat (WAG strain), UniProt Q5NKN4 78-223, looked up)
chain: VQENRTKTTDSPTKLKCPKDWHSHQDKCFHVSQAPNTWNKSLADCGGKGATLLLIQDQEELRFLRNLTKGKDRSFWIGLNYTLPDKNWKWINSSTLNSDVLSIFGDTKQNSCASISQDKVLSESCDSDNLWICQKELKCECMCNGS
notes: rat NKR-P1B of the WAG strain, ectodomain construct V78-S223; Disulphide dimer; also called pYD5_NKR-P1B^WAG cleaved off by TEV protease; not shown: Fc (human IgG), N-terminal, cleaved
For B3, in data set [15], the “stoichiometry N” value turned out to be 2.
